Results published in US20050182242A1, “Global analysis of protein activities using proteome chips” (priority 2001, published 2005).

Target: T1, calmodulin (Homo sapiens, UniProt P0DP23)
T1 construct: purchased CalBiochem, USA
Experiment: Yeast proteome chip probed with biotinylated calmodulin
Type: binding
Conditions: biotinylated calmodulin in the presence of calcium
Source text: To test for protein-protein interactions, the yeast proteome was probed with calmodulin (11). Calmodulin is a highly conserved calcium-binding protein involved in many calcium-regulated cellular processes and has many known physical partners (Hook et al., 2001, Annu. Rev. Pharmacol. Toxicol. 41:471). The calmodulin probe was biotinylated, and bound probe was detected using Cy3-labeled streptavidin. As a control, the yeast proteome was probed with Cy3-labeled streptavidin alone.
Generally, protein-protein interactions can be assayed as follows. Blocked proteome chips are washed three to five times in PBS buffer, and the extra liquid on the glass surface is removed by tapping the slides vertically on a KIMWIPE™. 200 ∞l of biotinylated protein probe is added to the proteome chip and immediately covered by a hydrophobic plastic cover slip (GRACE BIO-LABS™, USA). After trapped air bubbles are removed, the chip is incubated in a humidity chamber at room temperature (RT) for one hour. To remove the cover slip, the chip is immersed into large volume of PBS buffer (>50 ml), and the slip should float away. The chip is then moved to a second PBS bath (>50 ml) and washed 3×5 min with shaking at RT. After removing extra liquid on the surface of the chip, at least 150 μl of Cy3- or Cy5-conjugated streptavidin (PIERCE™, USA; 1:2000 to 1:4000 dilution) is added to the surface and covered by a hydrophobic plastic cover slip (GRACE BIO-LABS™, USA). The chip is incubated for greater than 30 min in the dark at RT. The chip is then washed as described above. To completely remove the liquid on the chip, the chip is spun to dryness at 1500-2000 rpm for 5-10 min at RT.
• 1. S. Fields, Y. Kohara, D. J. Lockhart, Proc. Natl. Acad. Sci. 96, 8825 (1999); A. Goffeau et al., Science 274, 563 (1996). • 2 P. Ross-Macdonald et al., Nature 402, 413 (1999); J. L., DeRisi, V. R. Iyer, P. O. Brown, Science 278, 680 (1997); E. A. Winzeler et al., Science 285, 901 (1999). P. Uetz et al., Nature 403, 623 (2000); T. Ito et al., Proc. Natl. Acad. Sci. USA. 97, 1143 (2000) • 3 H. Zhu, M. Snyder, Curr. Opin. Chem. Biol. 5, 40 (2001). • 4 M. R. Martzen et al., Science 286, 1153 (1999). • 5 H. Zhu et al., Nat. Genet. 26, 283 (2000). • 6 G. MacBeath, S. L. Schreiber, Science 289, 1760 (2000). • 7 A. Caveman, J. Cell Sci. 113, 3543 (2000). • 8 P. Arenkov et al., Anal. Biochem 278, 123 (2000). • 9 D. A. Mitchell, T. K. Marshall, R. J. Deschenes, Yeast 9, 715 (1993). The expression vector pEGH was created by inserting an RGS-HisX6 epitope tag between the GST gene and the polycloning site of pEG(KG). The yeast ORFs were cloned using the strategy described previously (5), except every step was done in a 96-well format. Plasmid DNAs confirmed by DNA sequencing were reintroduced into both yeast (Y258) and E. coli (DH5a). […] 0.1 mM calcium was present in buffers in all subsequent steps. The chip was washed three times with PBS at RT. Cy3-conjugated streptavidin (Jackson IR, USA) (1:5000 dilution) was added to the chip and incubated for 30 min at RT. After extensive washing, the chip was spun dry and scanned using a microarray scanner; the data was subsequently acquired with the GENEPIX™ array densitometry software (Axon, USA). • 12 S. S. Hook, A. R. Means, Annu. Rev. […]

Molecule	calmodulin binding
CMK1: yeast calcium/calmodulin-dependent serine/threonine protein kinase, GST-HisX6 fusion (protein, left off: a dimerising Fc or GST, yeast calcium/calmodulin-dependent serine/threonine protein kinase, GST-HisX6 fusion) MDDKVSEKESSPKQTEEDSEGKMAHVQPASYVNKKKYVFGKTLGAGTFGVVRQAKNTETGEDVAVKILIKKALKGNKVQLEALYDELDILQRLHHPNIVAFKDWFESKDKFYIITQLAKGGELFDRILKKGKFTEEDAVRILVEILSAVKYMHSQNIVHRDLKPENLLYIDKSDESPLVVADFGIAKRLKSDEELLYKPAGSLGYVAPEVLTQDGHGKPCDIWSIGVITYTLLCGYSAFRAERVQDFLDECTTGEYPVKFHRPYWDSVSNKAKQFILKALNLDPSKRPTAAELLEDPWIICTELKTHNLLPGLKEGLDARQKFRNSVERVRLNMKIQKLRDLYLEQTESDSDFDEGSQANGSVPPLKATDTSQLSKKLSEEEQSKLKSELTSKAFAQLVNTVLAEKEKFLNINRVCSSDSDLPGSDIKSLDEAKEKPEGKDTKTEE	identified
MY04: yeast class V myosin heavy chain, GST-HisX6 fusion (protein, UniProt P32492 1-1471, looked up, GST-HisX6 tag, yeast class V myosin heavy chain, GST-HisX6 fusion) Myosin-4: MSFEVGTKCWYPHKEQGWIGGEVTKNDFFEGTFHLELKLEDGETVSIETNSFENDDDHPTLPVLRNPPILESTDDLTTLSYLNEPAVLHAIKKRYMNGQIYTYSGIVLIAANPFDKVDHLYSREMIQNYSSKRKDELEPHLFAIAEEAYRFMVHEKANQTVVVSGESGAGKTVSAKYIMRYFASVQESNNREGEVEMSQIESQILATNPIMEAFGNAKTTRNDNSSRFGKYLQILFDENTTIRGSKIRTYLLEKSRLVYQPETERNYHIFYQILEGLPEPVKQELHLSSPKDYHYTNQGGQPNIAGIDEAREYKITTDALSLVGINHETQLGIFKILAGLLHIGNIEMKMTRNDASLSSEEQNLQIACELLGIDPFNFAKWIVKKQIVTRSEKIVTNLNYNQALIARDSVAKFIYSTLFDWLVDNINKTLYDPELDQQDHVFSFIGILDIYGFEHFEKNSFEQFCINYANEKLQQEFNQHVFKLEQEEYVKEEIEWSFIEFSDNQPCIDLIENKLGILSLLDEESRLPSGSDESWASKLYSAFNKPPSNEVFSKPRFGQTKFIVSHYAVDVEYEVEGFIEKNRDSVSLGHLDVFKATTNPIFKQILDNRELRSDDAPEEQNTEKKIMIPARLSQKKPTLGSMFKKSLGELMAIINSTNVHYIRCIKPNSEKKPWEFDNLMVLSQLRACGVLETIRISCAGFPSRWTFDEFVQRYFLLTDYSLWSGILYNPDLPKEAIVNFCQSILDATISDSAKYQIGNTKIFFKAGMLAFLEKLRTNKMNEICIIIQKKIRARYYRLQYLQTMESIKKCQSQIRSLLVRTRVDHELKTRAAILLQTNIRALWKREYYRAAIGQIIKLQCTCKRKLILDSVNRKFMLMAAVIIQSYIRSYGHKTDYRTLKRSSILVQSAMRMQLARRRYIVLQKEVEERNIRASYGIGLLEEAIEFKNSFILNLEMLNDSYTRLTQLLQGDLSNIPSKQRQEYETIVNGYNDKISKLKTLQVEIMNTLNKKNALKERKKKQSSLIQSHMQSLAAIKGNKPSRLSDEVKSMKQELAFIENVIAQDFTTTYSANKNDKVKGLGIAGQQVKPKLVNVIRRESGNPDLLELLMDLNCYTLEVTEGYLKKVNVTEVNGDNVLGPIHVITTVVSSLVRNGLLIQSSKFISKVLLTVESIVMSLPKDETMLGGIFWLSNLSRLPAFAANQKTLYEANGGDEKDKLTLIYLNDLENETLKVFDKIYSTWLVKFMKHASAHIEIFDMVLNEKLFKNSGDEKFAKLFTFLNEFDAVLCKFQVVDSMHTKIFNDTLKYLNVMLFNDLITKCPALNWKYGYEVDRNIERLVSWFEPRIEDVRPNLIQIIQAVKILQLKISNLNEFKLLFDFWYALNPAQIQAILLKYKPANKGEAGVPNEILNYLANVIKRENLSLPGKMEIMLSAQFDSAKNHLRYDTSAITQNSNTEGLATVSKIIKLDRK	identified
